Test results as given in patent publication US20260234738A1 (Regeneron, published 2026).
“And” between values parts separate entries of the source, which are not always exact repeats. Identical values can stand only once.

B1: mAb10915 (antibody, V domains shown)
VH: EVQLVESGGGLVQPGGSLRLSCAASGFTVSSNYMNWVRQAPGKGLEWVSVIYSGGSTFYADSVKGRFTISRHNSKNTLYLQMNSLRPEDTAVYYCARDLGGYFDYWGQGTLVTVSS
VL: not shown
B2: mAb10914 (antibody, V domains shown)
VH: EVQLVESGGGLVQPGGSLRLSCAASGLIVSRNYMIWVRQAPGKGLEWVSVIYSGGSTFYADSVKGRFTISRHNSKNTLYLQMNSLRAEDTAVYYCARDLGTGGMDVWGQGTTVTVSS
VL: DIQLTQSPSFLSASVGDRVTITCWASQGISSYLAWYQQKPGKAPKLLIYAASTLQSGVPSRFSGSGSGTEFTLTISSLQPEDFATYYCQQLNSYPLTFGGGTKVEIKR
B3: mAb10957 (antibody, V domains shown)
VH: EVQLVESGGGLVQPGGSLRLSCAASGVTVSSNYMSWVRQAPGKGLEWVSVIYSGGSTFYADSVKGRFTISRDNSKNTLFLQMNSLRIEDTAVYYCARDLGPYGMDVWGQGTTVTVSS
VL: DIQLTQSPSFLSASVGDRVTITCRASQGISSYLAWYQQKPGKAPKLLIYAASTLQSGVPSRFSGSGSGTQFILTISSLQPEDFATYYCQQLNSYPGFTFGPGTKVDIKR
B4: mAb10956 (antibody, V domains shown)
VH: EVQLVESGGGLVQPGGSLRLSCAASGLTVSSNYMSWVRQAPGKGLEWVSVIYSGGSTFYADSVKGRFTISRDNSKNTLYLQMNSLRAEDTAVYYCARDLIKYGMDVWGQGTTVTVSS
VL: not shown
B5: mAb10930 (antibody, V domains shown)
VH: EVQLVESGGGLVQPGRSLRLSCAASGFTFDDYAMYWVRQAPGKGLEWVSGISWNSGSIGYADSVKGRFTISRDNAKNSLYLQMNSLRAADTALYYCAKDKDWNSRGYYYYGMDVWGQGTTVTVSS
VL: not shown
B6: mAb10936 (antibody, V domains shown)
VH: QVQLVESGGGVVQPGRSLRLSCAASGFTFRNYGMHWVRQAPGKGLEWVSVIWYDGSNRYYADSVKGRFTISRDTSKNTLYLQMNSLRAEDTAVYYCARDPPITGTTGGDAFDIWGQGTMVTVSS
VL: not shown
B7: mAb10939 (antibody, V domains shown)
VH: EVQLVESGGGLVQPGGSLRLSCAASGLTVSSNYMNWVRQVPGKGLEWVSVIYSGGSKFYVDSVKGRFTISRHNSKNTLYLQMNSLRPEDTAVYYCTRDAQYYGMDVWGQGTTVTVSS
VL: DIQMTQSPSSLSASVGDRVTITCRASQSISTYLHWYQQKPGEAPKLLIYAASSLQSGVPSRFSGSGSGTDFTLTISSLQPEDFATYYCQQSYSTPPEIFGQGTKLEIKR
B8: mAb10921 (antibody, V domains shown)
VH: EVQLVESGGGLVQPGGSLRLSCAASGITVSSNYMSWVRQAPGKGLEWVSVIYSGGSTFYADSVKGRFTISRHNSKNTLYLQMNSLRAEDTAVYYCARERNFDAFDIWGQGTMVTVSS
VL: DIQMTQSPSSVSASVGDRVTITCRASQGISSWLAWYQQKPGKAPKLLIYAASSLQSGVPSRFSGSGSGTDFTLTISSLQPEDFATYYCQQANSFPLFTFGPGTKVDIKR
B9: mAb10920 (antibody, V domains shown)
VH: QVQLVESGGGVVQPGRSLRLSCAASGFTFSYYGMHWVRQAPGKGLEWVAVIWYDGSNKFYADSVKGRFTISRDNSKNTLYLQMNSLRAEDTAVYYCAAARPGYYYGMDVWGQGTTVTVSS
VL: DIQMTQSPSSLSASVGDRVTITCRASQGISNYLAWFQQKPGKAPNSLIYAASSLQRGVPSKFSGSGSGTDFTLTISSLQPEDFATYYCQQYNSYPRTFGQGTKVEIKR
B10: mAb10982 (antibody, V domains shown)
VH: EVQLVESGGGLVQPGGSLRLSCAASGLTVSSNYMSWVRQAPGKGLEWVSVIYSGGTTYYADSVKGRFTISRHNSKNTLSLQMNSLRAEDTAVYYCARGEGANYYGMDVWGQGTTVTVSS
VL: QSVLTQPPSVSGAPGQRVTISCTGSSSNIGTGYDVHWYQQLPGTAPKLLIYGNSNRPSGVPDRFSGSKSGTSASLAITGLQAEDEADYYCQSYDSSLSGYVVFGGGTKLTVLG
B11: mAb10985 (antibody, V domains shown)
VH: EVQLVESGGGLVQPGRSLRLSCAASGFTFDDYAMHWVRQAPGKGLEWVSGISWNRGSIGYADSVKGRFTISRDNAKNSLYLQMSSLRAEDTALYYCAKDGERWDSVVVPSARNGMDVWGQGTTVTVSS
VL: QSVLTQPPSVSGAPGQRVTISCTGSSSNIGAGYDVHWYQQLPGTAPKLLIYGNSNRPSGVPDRFSGSKSGTSASLAITGLQAEDEADYYCQSYDSSLSGSYVFGTGTKVTVLG
B12: mAb10964 (antibody, V domains shown)
VH: QVQLQESGPGLVKPSETLSLTCTVSGGSINNYYWIWIRQPPGKGLEWIGYIYHSGSTNYNPSLKSRVTISVDTSKNQFSLKVSSVTAADTAVYYCANMVRGVYEDDYWGQGTLVTVSS
VL: DIQMTQSPSSLSASVGDRVTITCRASQSISNYLNWYQQKPGKAPKLLIFAASSLRSGVPSRFSGSGSGTDFTLTISSLHPEDFATYYCQQNYNTPLTFGPGTKVDIKR
B13: mAb10937 (antibody, V domains shown)
VH: QITLKESGPTLVKPTQTLTLTCTFSGFSLSTNVVGVGWIRQPPGKALEWLALIYWNDDKRYSPSLKSRLTITKDTSKNQVVLTMTNMDPVDTATYYCAHGPTGDYFDYWGQGTLVTVSS
VL: not shown
B14: mAb10971 (antibody, V domains shown)
VH: EVQLVESGGGLIQPGGSLRLSCAASGVTVSSNYMSWVRQAPGKGLEWVSVIYSGGSTFYSDSVKGRFSISRDNSKNTLYLQMNSLRAEDTAVYYCARDLYYYGMDVWGQGTTVTVSS
VL: DIQLTQSPSFLSASVGDRVTITCRASQGISTYLAWYQQKPGKAPKLLIYAASTLQSGVPSRFSGSGSGTEFTLTISSLQPEDFATYYCQQLDSYPGLTFGGGTKVEIKR
B15: mAb10923 (antibody, V domains shown)
VH: QVQLVQSGAEVKKPGASVKVSCKASGYTFINYYIHWVRQAPGQGLEWMGWINPNSGGTNYAQKFQGRVTMTRDTSISTAYMELSRLRSDDTAVYYCAIITIFGVVTWFDPWGQGTLVTVSS
VL: not shown
B16: mAb10966 (antibody, V domains shown)
VH: EVQLVESGGGLVQPGGSLRLSCAASGLTVSSNYMSWVRQAPGKGLEWVSVIYSGGSTFYADSVKGRFTISRDNSKNTLYLQMNSLRPEDTAVYYCAREGRIAATGYGMDVWGQGTTVTVSS
VL: not shown
B17: mAb10984 (antibody, V domains shown)
VH: EVQLVESGGGLVQPGGSLRLSCAASGLTVNRNYMSWVRQAPGKGLEWVSLIYSGGSTYYADSVKGRFTISRDNSKNTLYLQMNSLRLEDTAVYYCARGELGIPYGMDVWGQGTTVTVSS
VL: QSVLTQPPSVSAAPGQKVTISCSGSSSNIGNNYVSWYQQLPGTAPKLLIYDNNKRPSGIPDRFSGSKSGTSATLGITGLQTGDEADYYCGTWDSSLSAGVFGGGTKLTVLG
B18: mAb10934 (antibody, V domains shown)
VH: not shown
VL: DIQMTQSPSSLSASVGDRVTITCQASQDIWNYINWYQQKPGKAPKLLIYDASNLKTGVPSRFSGSGSGTDFTFTISSLQPEDIATYYCQQHDDLPPTFGQGTKVEIKR
B19: mAb10938 (antibody, V domains shown)
VH: EVQLVESGGGLVQPGGSLRLSCAVSGFTVSSNYMSWVRQAPGKGLEWVSLIYSGGSTFYADSVKGRFTISRHNSKNTLYLQMNSLRAEDTAVYYCAREGGYSYDYNYWGQGTLVTVSS
VL: DIQMTQSPSSLSASVGDRVTITCQASQDIRNYLNWYQQKPGKAPKLLIYDASNLETGVPSRFSGIGSGTDFTFTISSLQPEDIATYYCQQYDNLPITFGQGTRLEIKR
B20: mAb10954 (antibody, V domains shown)
VH: EVQLVESGGGLVQPGGSLRLSCAASGITVSSNYMSWVRQAPGKGLEWVSLIYSGGSTYYADSVKGRFTISRDNSKNTLYLQMNSLRVEDTAVYYCARDHGMAAAGYNYWGQGTLVTVSS
VL: DIQMTQSPSSLSASVGDRVTITCQASQDINKYLNWYQQKPGKAPKLLIYDASNLETGVPSRFSGSGSGTDFTFTINSLQPEDFATYFCQQYDNLPPAFGQGTKVEIKR
B21: mAb10955 (antibody, V domains shown)
VH: EVQLVESGGGLVQPGGSLRVSCAASGFTVSRNYMSWVRQAPGKGLEWVSVIYSGGSTFYADSVKGRFTISRDNSKNTLYLQMNSLRAEDTAIYYCARYIPRFDPWGQGTLVTVSS
VL: DIQMTQSPSSLSASVGDRVTITCQASQDISNYLNWFQQKPGRAPKLLIYDASNLETGVPSRFSGSGSGTDFTFTISSLQPEDIATYYCQQYDNLPITFGQGTRLEIKR
B22: mAb10935 (antibody, V domains shown)
VH: EVQLVESGGGLVQPGGSLRLSCAASGFTVSSNYMSWVRQAPGKGLEWVSLIYSGGSTYYADSVKGRFTISRHNSKNTLYLQMNSLRSEDTAVYYCARVPLGDYYYGMDVWGQGTTVTVSS
VL: DIQMTQSPSSLSASVGDRVTITCQASQDINKYLNWYQQKPGKAPKLLIYDASNLETGVPSRFSGSGSGTDFTFTISSLQPEDIATYYCQQSDNLPLTFGGGTKVEIKR
B23: mAb10967 (antibody, V domains shown)
VH: EVQLVESGGGLVQPGGSLRLSCAASGFTVSSNYMSWVRQAPGKGLEWVSVIYPGGSTFYADSVKGRFTISRDNSKNTLYLQMNSLRAEDTAVYYCARDQRDFAWGQGTLVTVSS
VL: DIQMTQSPSSLSASVGDRVTITCQASQDISNYLNWYQQKPGKAPKLLIYDASNLETGVPSRFSGSGSGTDFTFTISGLQPEDIATYYCQQYDNLPPTFGQGTRLEIKR
B24: mAb10965 (antibody, V domains shown)
VH: EVQLVESGGGLIQPGGSLRLSCAASVFTVSYNYMSWVRQAPGKGLEWVSVIYSGGSTYYADSVKGRFTISRDNSKNTLYLQMNSLRAEDTAVYYCARALPGWGGSFEYFDYWGQGTLVTVSS
VL: not shown
B25: mAb10932 (antibody, V domains shown)
VH: EVQLVESGGGLVQSGGSLRLSCAASGLTVSSNYMSWVRQAPGKGLEWVSVIYSGGSTFYSDSVKGRFTISRHNSKNTLYLQMNSLRAEDTAVYYCARARGDAFDIWGQGTMVTVSS
VL: not shown
B26: mAb10913 (antibody, V domains shown)
VH: EVQLVESGGGLVQPGGSLRLSCAASGFTFRNYEMNWVRQAPGKGLEWVSYITSSGSTMYYADSVKGRFTISRDNAKNSLYLQMNSLRAEDTAVYYCARDGFYYYYAMDVWGQGTTVTVSS
VL: QSVLTQPPSVSAAPGQKVTISCSGSSSNIGNNYVSWYQQLPGTAPKLLIYDNNKRPSGIPDRFSGSKSGTSATLGITGLQTGDEADYYCGTWDSSLSVGRVFGTGTKVTVLG

Target: SARS-COV-2 Spike protein receptor binding domain (amino acids Arg319-Phe541) expressed with the Fc p (SARS-CoV-2)

Binder | IC50
B1 | 0.321 nM
B2 | 0.98 nM
B3 | 0.169 nM
B4 | 0.185 nM
B5 | 0.282 nM
B6 | 0.0875 nM and 0.071 nM
B7 | 0.175 nM and 0.263 nM
B8 | 0.433 nM and 0.507 nM
B9 | 0.338 nM and 0.139 nM
B10 | 0.116 nM
B11 | 0.0696 nM and 0.0411 nM
B12 | 0.0683 nM and 0.0625 nM
B13 | 0.0649 nM
B14 | 0.149 nM
B15 | 0.149 nM and 0.184 nM
B16 | 0.16 nM
B17 | 0.0775 nM
B18 | 0.066 nM and 0.0597 nM
B19 | 0.275 nM
B20 | 0.0711 nM
B21 | 0.141 nM
B22 | 0.102 nM and 0.0694 nM
B23 | 0.28 nM
B24 | 0.213 nM
B25 | 0.373 nM
B26 | 0.217 nM
